For series [1], the target named is T1, CNBP (Homo sapiens, UniProt P62633 1-177). In words: EMSA; 100 mM Li+; apparent Kd, SEM, n=3; EMSA: 20 mM HEPES pH 8.0, 10 mM MgCl2, 1 mM EDTA, 0.5 ug/ul heparin, 1 mM DTT, 1 ug/ul BSA, 10% glycerol, 100 mM KCl or LiCl, probe 0.75 uM, 30 min at 37 C; CNBP diluted in 50 mM Tris-HCl pH 7.5, 300 mM NaCl, 1 mM DTT, 5 mM imidazole, 0.1 mM ZnCl2. The note with it: protein: recombinant; tags: tag-free (from pET-32a-TEV-CNBP, tag removed); label: none (SYBR Gold stain); single strand, unfolded.

Series [2] has as its target T1, CNBP. In words: EMSA; 100 mM K+; apparent Kd, SEM, n=3; EMSA: 20 mM HEPES pH 8.0, 10 mM MgCl2, 1 mM EDTA, 0.5 ug/ul heparin, 1 mM DTT, 1 ug/ul BSA, 10% glycerol, 100 mM KCl or LiCl, probe 0.75 uM, 30 min at 37 C; CNBP diluted in 50 mM Tris-HCl pH 7.5, 300 mM NaCl, 1 mM DTT, 5 mM imidazole, 0.1 mM ZnCl2. The note with it: protein: recombinant, tags: tag-free (from pET-32a-TEV-CNBP, tag removed), label: none (SYBR Gold stain). (In general: A gel shift assay detects complexes by their altered migration in electrophoresis.)

T1 sequence (P62633 whole entry): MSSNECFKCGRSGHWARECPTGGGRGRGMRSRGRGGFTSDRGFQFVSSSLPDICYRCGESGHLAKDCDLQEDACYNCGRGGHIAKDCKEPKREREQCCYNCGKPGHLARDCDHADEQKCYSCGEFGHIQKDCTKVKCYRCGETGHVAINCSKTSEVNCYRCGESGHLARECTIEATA

B1: Hs2160 unfolded (Li+) (ssDNA)
DNA: GTGTATGTGGGGGGGGGGGGCGGGTGGTAG
Turning to B1, in the series with CNBP [1], the Kd was determined as 287 ± 100 nM.

B2: Hs791 folded as G4 (K+) (structured_DNA)
DNA: TGGGGTGGGGTGAGGTGGGGAAGAGGGAAC
In the case of B2, in the series with CNBP [2] (parallel G4), the Kd turned out to be 271 ± 70 nM.

B3: Hs791 unfolded (Li+) (ssDNA)
DNA: B2 DNA
For the molecule B3, the Kd in the series with CNBP [1] amounted to 199 ± 55 nM.

B4: Dr2393 unfolded (Li+) (ssDNA)
DNA: TGCTGGTGGTCATGGGGGAGTGGAGAGCAT
As for B4, the Kd with CNBP [1] turned out to be 257 ± 70 nM.

B5: Hs2160 folded as G4 (K+) (structured_DNA)
DNA: B1 DNA
For the molecule B5, the Kd in the series with CNBP [2] (parallel G4) is 431 ± 120 nM.

B6: Dr2393 folded as G4 (K+) (structured_DNA)
DNA: B4 DNA
For B6, the Kd with CNBP [2] (G4) stood at 331 ± 80 nM.

The values are drawn from PMC10980799, “The transcription of the main gene associated with Treacher–Collins syndrome (TCOF1) is regulated by G-quadruplexes and cellular nucleic acid binding protein (CNBP)”.
